Publication PMC10942344 (bioRxiv, 2024)

Key:
Assay in all cases: SPR
[1] = biological target: recombinant GP38 of CCHFV Kosova-Hoti (CCHFV Kosova-Hoti, UniProt B2BSL7, strain)
[2] = biological target: recombinant GP38 of CCHFV Oman-199809166 (CCHFV Oman-199809166, UniProt A0A0U3C6Q7, strain)
[3] = biological target: recombinant GP38 of CCHFV 200406546-Turkey (CCHFV 200406546-Turkey, UniProt A0A0U2SQZ0, strain)

Measured: Kd

B1: ADI-58048 IgG (antibody, V domains shown)
VH: QLQLQESGPGLVKPSETLSLTCTVSGGSITTSHYYWGWIRQPPGKGLEWVGSMYYSGGIYYNPSLKGRVTISVDTSKNQFSLKLSSVTAADTAVYYCALADAPDDAFDIWGQGTMVTVSS
VL: DIQMTQSPSSLSAFVGDRVTITCRASQSISSYLNWYQQKPGKAPKLLIYAASTLQSGVPSRFSGSGSGTDFTLTISSLQSEDFATYYCQESYSIPFTFGPGTKVDIK
< 0.398 nM: [1] | [2] | [3]
